Results from the supplement of paper PMC7877785.
± gives the uncertainty stated by the source.

Experiment: self-splicing fitness, log relative to wild type (ln ratio); higher = more splicing; Tetrahymena group I intron in knt gene, E. coli kanamycin selection, DiMSum; sequences stand for … in CUCUCU…GGAGGGAAAAGUUAUCAGGCAUGCACCUGGUAGCUAGUCUUUAAACCAAUAGAUUGCAUCGGUUUAAAAGGCAAGACCGUCAAAUUGCGGGAAAGGGGUCAACAGCCGUUCAGUACCAAGUCUCAGGGGAAACUUUGAGAUGGCCUUGCAAAGGGUAUGGUAAUAAGCUGACGGACAUGGUCCUAACCACGCAGCCAAGUCCUAAGUCAACAGAUCUUCUGUUGAUAUGGAUGCAGUUCACAGACUAAAUGUCGGUCGGGGAAGAUGUAUUCUUCUCAUAAGAUAUAGUCGGACCUCUCCUUAAUGGGAGCUAGCGGAUGAAGUGAUGCAACACUGGAGCCGCUGGGAACUAAUUUGUAUGCGAAAGUAUAUUGAUUAGUUUUGGAGUACUCGUGGUCG
In short: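 DiMSum derived fitness as the error-weighted combination of fold changes across replicates, kanamycin versus no kanamycin, normalised to wild type. E. coli BL21(DE3) held the library, which randomised all eight P1ex-region intron nucleotides within the knt kanamycin-resistance gene on pET-22b(+). Six replicate transformations grew overnight at 37°C or 30°C on LB agar with or without 25 μg/mL kanamycin, also containing 100 μg/mL carbenicillin, 50 μM IPTG and 0.2% rhamnose, and pooled colonies were amplicon-sequenced on an Illumina HiSeq 2500.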

| Sequence | self-splicing fitness (ln) (30 °C) | self-splicing fitness (ln) (37 °C) |
| --- | --- | --- |
| CCCCAGCAAUAUUACGCCCU | -4.24 ± 0.39 | -1.98 ± 0.28 |
| CCCCAGCAAUAUUACGCGUG | -4.14 ± 0.18 | -2.76 ± 0.15 |
| CCCCAGCAAUAUUACGCUAG | -3.68 ± 0.13 | -2.86 ± 0.17 |
| CCCCAGCAAUAUUACGGACC | -4.08 ± 0.35 | -2.64 ± 0.26 |
| CCCCAGCAAUAUUACGGAGA | -2.32 ± 0.12 | -1.61 ± 0.15 |
| CCCCAGCAAUAUUACGGCCC |  | -1.64 ± 0.47 |
| CCCCAGCAAUAUUACGGGCU | -3.75 ± 0.17 | -2.32 ± 0.17 |
| CCCCAGCAAUAUUACGGGGG | -4.74 ± 0.16 | -2.67 ± 0.12 |
| CCCCAGCAAUAUUACGGUGG | -4.09 ± 0.2 | -1.86 ± 0.11 |
| CCCCAGCAAUAUUACGGUUG | -2.4 ± 0.087 | -1.5 ± 0.1 |
| CCCCAGCAAUAUUACGUAAC | -5 ± 0.27 | -2.67 ± 0.18 |
| CCCCAGCAAUAUUACGUGUC | -4.78 ± 0.2 | -2.53 ± 0.15 |
| CCCCAGCAAUAUUACGUGUG | -2.66 ± 0.084 | -2.5 ± 0.11 |
| CCCGAGCAAUAUUACGAACG |  | -1.84 ± 0.44 |
| CCCGAGCAAUAUUACGAAGA | -2.86 ± 0.31 |  |
| CCCGAGCAAUAUUACGAAUU |  | -2.44 ± 0.35 |
| CCCGAGCAAUAUUACGACCU | -2.45 ± 0.31 | -2.19 ± 0.32 |
| CCCGAGCAAUAUUACGAGGC | -2.89 ± 0.28 | -2.47 ± 0.27 |
| CCCGAGCAAUAUUACGAGUU | -4.2 ± 0.19 | -2.29 ± 0.17 |
| CCCGAGCAAUAUUACGAUAG | -3.17 ± 0.22 | -2.02 ± 0.2 |
| CCCGAGCAAUAUUACGAUAU | -4.76 ± 0.45 | -2.2 ± 0.22 |
| CCCGAGCAAUAUUACGCCUA | -1.85 ± 0.25 | -2.94 ± 0.35 |
| CCCGAGCAAUAUUACGCCUU | -2.99 ± 0.2 | -1.56 ± 0.34 |
| CCCGAGCAAUAUUACGCGUC | -5.24 ± 0.32 | -2.91 ± 0.23 |
| CCCGAGCAAUAUUACGCUAU | -4.39 ± 0.34 | -2.49 ± 0.2 |

| Sequence | self-splicing fitness (ln) (30 °C) | self-splicing fitness (ln) (37 °C) |
| --- | --- | --- |
| CCCGAGCAAUAUUACGCUCG | -3.62 ± 0.22 | -2.92 ± 0.27 |
| CCCGAGCAAUAUUACGGAUA | -3.04 ± 0.22 | -2.89 ± 0.27 |
| CCCGAGCAAUAUUACGGAUC | -3.92 ± 0.46 | -2.06 ± 0.27 |
| CCCGAGCAAUAUUACGGCCU | -2.93 ± 0.33 |  |
| CCCGAGCAAUAUUACGGGCG | -3.03 ± 0.19 | -2.47 ± 0.25 |
| CCCGAGCAAUAUUACGGGCU | -3.98 ± 0.26 | -2.65 ± 0.21 |
| CCCGAGCAAUAUUACGGGGU | -2.92 ± 0.16 | -2.93 ± 0.17 |
| CCCGAGCAAUAUUACGGUAC | -4.04 ± 0.22 | -2.85 ± 0.21 |
| CCCGAGCAAUAUUACGGUGG | -3.06 ± 0.13 | -3.2 ± 0.18 |
| CCCGAGCAAUAUUACGUCCU | -3.97 ± 0.39 | -2.75 ± 0.39 |
| CCCGAGCAAUAUUACGUGCG | -4.04 ± 0.21 | -2.82 ± 0.21 |
| CCCGAGCAAUAUUACGUUCU | -3.61 ± 0.25 | -2.1 ± 0.25 |
| CCCUAGCAAUAUUACGAAAA | -2.83 ± 0.2 | -3.22 ± 0.27 |
| CCCUAGCAAUAUUACGAAAU | -2.88 ± 0.21 | -2.59 ± 0.31 |
| CCCUAGCAAUAUUACGAAGU | -4.34 ± 0.28 | -2.89 ± 0.27 |
| CCCUAGCAAUAUUACGACCG | -1.21 ± 0.2 | -2.17 ± 0.34 |
| CCCUAGCAAUAUUACGACGA | -3.12 ± 0.24 | -2.61 ± 0.27 |
| CCCUAGCAAUAUUACGAGGC | -4.41 ± 0.42 | -4.06 ± 0.18 |
| CCCUAGCAAUAUUACGAGUA | -3.32 ± 0.29 | -2.72 ± 0.33 |
| CCCUAGCAAUAUUACGAUUU | -3.35 ± 0.17 | -1.91 ± 0.17 |
| CCCUAGCAAUAUUACGCGAU | -3.74 ± 0.18 | -2.77 ± 0.2 |
| CCCUAGCAAUAUUACGCGCU |  | -1.78 ± 0.47 |
| CCCUAGCAAUAUUACGCUAU | -3.92 ± 0.43 |  |
| CCCUAGCAAUAUUACGCUUU | -4.12 ± 0.22 | -2.49 ± 0.18 |
| CCCUAGCAAUAUUACGGGUG | -2.51 ± 0.11 | -0.894 ± 0.089 |

| Sequence | self-splicing fitness (ln) (30 °C) | self-splicing fitness (ln) (37 °C) |
| --- | --- | --- |
| CCCUAGCAAUAUUACGGUUA | -4.05 ± 0.35 | -2.71 ± 0.21 |
| CCCUAGCAAUAUUACGUACC | -1.72 ± 0.18 | -1.05 ± 0.3 |
| CCCUAGCAAUAUUACGUAUC |  | -3.37 ± 0.39 |
| CCCUAGCAAUAUUACGUCAU | -2.27 ± 0.13 | -3.11 ± 0.24 |
| CCCUAGCAAUAUUACGUCCA | -2.95 ± 0.23 | -2.83 ± 0.31 |
| CCCUAGCAAUAUUACGUGGG | -3.48 ± 0.1 | -2.54 ± 0.14 |
| CCCUAGCAAUAUUACGUUCA | -3.05 ± 0.19 | -2.7 ± 0.2 |
| CCCUAGCAAUAUUACGUUCG | -3.63 ± 0.27 | -2.64 ± 0.33 |
| CCGAAGCAAUAUUACGAAAG | -1.21 ± 0.073 | -0.965 ± 0.092 |
| CCGAAGCAAUAUUACGAGAA | -2.48 ± 0.47 | -1.17 ± 0.49 |
| CCGAAGCAAUAUUACGAGCC | -3.7 ± 0.26 | -2.8 ± 0.23 |
| CCGAAGCAAUAUUACGAGGC | -4.67 ± 0.42 | -3.39 ± 0.29 |
| CCGAAGCAAUAUUACGAUCU | -3.36 ± 0.34 | -2.85 ± 0.29 |
| CCGAAGCAAUAUUACGCAUU | -3.01 ± 0.2 | -3.77 ± 0.29 |
| CCGAAGCAAUAUUACGCUGG | -2.83 ± 0.22 | -3.49 ± 0.35 |
| CCGAAGCAAUAUUACGGAAG | -3.86 ± 0.24 | -1.31 ± 0.15 |
| CCGAAGCAAUAUUACGGGAG | -2.67 ± 0.18 | -2.46 ± 0.23 |
| CCGAAGCAAUAUUACGGGCA |  | -2.82 ± 0.25 |
| CCGAAGCAAUAUUACGGGUU | -4.22 ± 0.21 | -2.64 ± 0.16 |
| CCGAAGCAAUAUUACGUACG | -1.37 ± 0.13 | -0.92 ± 0.13 |
| CCGAAGCAAUAUUACGUAGA | -3.45 ± 0.17 | -1.06 ± 0.17 |
| CCGAAGCAAUAUUACGUCAA | -3.82 ± 0.38 | -2.35 ± 0.33 |
| CCGAAGCAAUAUUACGUCUG | -0.669 ± 0.06 | -0.285 ± 0.068 |
| CCGAAGCAAUAUUACGUGAU | -3.4 ± 0.13 | -2.84 ± 0.19 |
| CCGAAGCAAUAUUACGUGGG | -3.82 ± 0.14 | -2.39 ± 0.14 |

| Sequence | self-splicing fitness (ln) (30 °C) | self-splicing fitness (ln) (37 °C) |
| --- | --- | --- |
| CCGAAGCAAUAUUACGUUUA | -3.96 ± 0.26 | -2.95 ± 0.19 |
| CCGAAGCAAUAUUACGUUUG | -4.44 ± 0.22 | -0.979 ± 0.1 |
| CCGCAGCAAUAUUACGAAGC | -3.14 ± 0.22 | -3.36 ± 0.25 |
| CCGCAGCAAUAUUACGAUAG | -0.786 ± 0.052 | 0.602 ± 0.07 |
| CCGCAGCAAUAUUACGCCCC | -3.29 ± 0.36 | -1.4 ± 0.45 |
| CCGCAGCAAUAUUACGCCUC | -2.79 ± 0.12 | -2.04 ± 0.14 |
| CCGCAGCAAUAUUACGCGCU | -3.09 ± 0.21 | -2.01 ± 0.23 |
| CCGCAGCAAUAUUACGCUAC | -4.14 ± 0.28 | -2.37 ± 0.23 |
| CCGCAGCAAUAUUACGCUUG | -3 ± 0.12 | -2.84 ± 0.16 |
| CCGCAGCAAUAUUACGGACA | -4.06 ± 0.46 | -2.57 ± 0.17 |
| CCGCAGCAAUAUUACGGAGG | -3.01 ± 0.16 | -1.81 ± 0.18 |
| CCGCAGCAAUAUUACGGGUU | -3.79 ± 0.11 | -2.74 ± 0.11 |
| CCGCAGCAAUAUUACGGUCC | -3.73 ± 0.23 | -1.99 ± 0.23 |
| CCGCAGCAAUAUUACGGUCU | -4.37 ± 0.2 | -3.65 ± 0.23 |
| CCGCAGCAAUAUUACGUGGA | -3.51 ± 0.23 | -2.43 ± 0.22 |
| CCGCAGCAAUAUUACGUUCU | -3.87 ± 0.19 | -3.16 ± 0.26 |
| CCGCAGCAAUAUUACGUUGA | -3.59 ± 0.16 | -3.41 ± 0.25 |
| CCGGAGCAAUAUUACGAAGA | -3.63 ± 0.23 | -1.97 ± 0.16 |
| CCGGAGCAAUAUUACGAGGG | -2.13 ± 0.27 | -1.47 ± 0.29 |
| CCGGAGCAAUAUUACGAGUC | -3.15 ± 0.26 | -1.85 ± 0.28 |
| CCGGAGCAAUAUUACGAUGU | -1.72 ± 0.14 | -0.726 ± 0.17 |
| CCGGAGCAAUAUUACGAUUU | -2.51 ± 0.36 | -2.26 ± 0.3 |
| CCGGAGCAAUAUUACGCAUU | -2.9 ± 0.39 | -1.81 ± 0.45 |
